Laboratory results: publication PMC4681064

Experiments:
Test in all cases: GST pulldown, Western blot densitometry
Conditions in all cases: incubated overnight with lysates; GST-only control 10 (PA2 lysate), 8 (WT lysate)
[1] = target: GST-tagged CMS SH3 domain II
[2] = target: GST-tagged CMS SH3 domain I
[3] = target: GST-tagged CMS SH3 domain III

## HCV NS5A protein (WT) expressed from SGR-neo-JFH-1 (from UniProt Q99IB8) PA2: P2 motif PTPPPR -> ATPAAA (P->A; P->A; P->A; R->A; residue numbers not printed)
[1]
  response (NS5A:GST-SH3 ratio (%)): 9
[2]
  response (NS5A:GST-SH3 ratio (%)): 16
[3]
  response (NS5A:GST-SH3 ratio (%)): 10
